Target: T1, Bacillus licheniformis subtilisin A (Bacillus licheniformis, UniProt P00780 106-379)
T1 sequence (looked up): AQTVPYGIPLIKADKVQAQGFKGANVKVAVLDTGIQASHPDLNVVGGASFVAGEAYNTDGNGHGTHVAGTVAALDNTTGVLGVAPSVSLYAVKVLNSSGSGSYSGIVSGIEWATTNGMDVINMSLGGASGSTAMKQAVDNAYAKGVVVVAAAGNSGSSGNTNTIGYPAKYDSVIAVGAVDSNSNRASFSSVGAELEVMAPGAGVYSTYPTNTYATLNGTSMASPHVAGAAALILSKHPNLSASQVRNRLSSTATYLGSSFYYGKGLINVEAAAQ
Assay: enzyme inhibition assay

fold decrease of IC50 against rCmPI-II: 3 fold
Binder: AEDCVGRKACTAEWYPVCGSDGVTYSNPCNFSAQQEQCDPNITIAHMGEC (natural protein, Cenchritis muricatus, UniProt P84755 1-50, looked up) [rCmPI-II R12A, alanine mutant at the P1 position of CmPI-II]
